# Ends that are not written are not given here.
# What was measured:
# [1] = target: T1, human recombinant annexin A2 (human, UniProt P07355 1-339); experiment: phage binding assay; recombinant proteins in 96-well plates; iPhage input 10^9 TU/well; bound phage particles quantified by bacterial infection; TU normalised on an insertless iPhage; conditions: both partners purified
# T1 construct: annexin A2, human, recombinant; also called ANXA2; source: bought: Amprox
# [2] = target: T2, GST-fused recombinant annexin A2 (human, UniProt P07355 1-339); experiment: as above; conditions: both partners purified
# T2 construct: May be the same protein as the annexin A2 bought from Amprox
# T2 sequence (P07355 whole entry, the tested form may be a part): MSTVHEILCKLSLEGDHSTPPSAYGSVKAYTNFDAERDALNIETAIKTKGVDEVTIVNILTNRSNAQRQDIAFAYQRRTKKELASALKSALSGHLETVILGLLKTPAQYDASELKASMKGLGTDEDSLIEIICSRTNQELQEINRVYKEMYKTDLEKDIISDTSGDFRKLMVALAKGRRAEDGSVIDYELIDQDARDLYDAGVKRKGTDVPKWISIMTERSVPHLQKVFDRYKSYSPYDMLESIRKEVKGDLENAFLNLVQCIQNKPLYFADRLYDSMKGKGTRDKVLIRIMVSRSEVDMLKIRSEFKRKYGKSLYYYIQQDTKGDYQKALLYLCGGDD
# T1 sequence (P07355 whole entry): as the sequence (P07355 whole entry, the tested form may be a part) above
binder,measurement,setting,value
"LGRFYAASG (also: phage-displayed, peptide selected from the X4YX4 iPhage random peptide library in KS1767 cells; the alanine variants were cloned into the fUSE5 vector; source: recovered and amplified by E. coli infection, and purified) [LGRFYAASG-displaying iPhage]",binding result,[1],binds
same,binding result,[2],binds

# Source: paper PMC5484684, “Intracellular targeting of annexin A2 inhibits tumor cell adhesion, migration, and in vivo grafting” (Scientific Reports, 2017)
